Experimental data published in patent US20110293610A1 (published 2011).

T1: TNF-beta (human, UniProt P01374 35-205)
T1 construct: also called TNFβ; Tumour Necrosis Factor-beta
T1 sequence (looked up): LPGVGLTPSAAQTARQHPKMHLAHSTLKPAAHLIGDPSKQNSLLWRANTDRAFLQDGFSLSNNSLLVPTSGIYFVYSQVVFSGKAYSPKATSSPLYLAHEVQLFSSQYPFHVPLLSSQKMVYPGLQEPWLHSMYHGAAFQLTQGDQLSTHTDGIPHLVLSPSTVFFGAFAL


Tests used:
Experiment in all cases: phage ELISA
[1] = molecular target: T2, B Lymphocyte Stimulator, soluble form (human) (human, UniProt Q9Y275 134-285, biotinylated with NHS-biotin where used as biotinylated B Lymphocyte Stimulator)
T2 construct: Coated on plastic, captured on streptavidin plates, amine-coupled to a CM5 chip or free in solution, depending on the assay; also called BLyS; immobilized B Lymphocyte Stimulator

LIGHT = LIGHT (human, UniProt O43557 74-240, limits assumed)
TNF-alpha = molecular target: T3, TNF-alpha (human, UniProt P01375 77-233)
T3 construct: also called TNFα; TNF-α

TNF-beta = molecular target: T1, TNF-beta
TRAIL = molecular target: T4, TRAIL (human, UniProt P50591 114-281)
T4 construct: also called TNF-related apoptosis inducing ligand
T4 sequence (P50591 114-281 limits assumed): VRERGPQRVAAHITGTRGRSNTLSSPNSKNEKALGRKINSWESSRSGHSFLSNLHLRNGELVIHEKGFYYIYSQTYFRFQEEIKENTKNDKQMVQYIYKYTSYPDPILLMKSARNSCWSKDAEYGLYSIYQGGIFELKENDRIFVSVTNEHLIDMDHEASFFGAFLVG

T3 sequence (P01375 77-233 limits assumed): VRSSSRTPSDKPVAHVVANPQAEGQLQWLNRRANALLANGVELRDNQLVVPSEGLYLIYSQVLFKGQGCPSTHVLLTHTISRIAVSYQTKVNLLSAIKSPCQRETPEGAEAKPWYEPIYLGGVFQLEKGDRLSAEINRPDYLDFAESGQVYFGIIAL
Sequence of LIGHT (O43557 74-240 limits assumed): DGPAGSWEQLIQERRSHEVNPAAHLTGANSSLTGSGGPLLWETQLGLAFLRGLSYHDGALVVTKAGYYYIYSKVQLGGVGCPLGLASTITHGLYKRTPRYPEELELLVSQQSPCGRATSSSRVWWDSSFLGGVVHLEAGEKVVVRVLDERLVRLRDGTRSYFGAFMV

Row | binding result [1] | binding result (LIGHT) | binding result (TNF-alpha) | binding result (TNF-beta) | binding result (TRAIL) | Binder
1 | binds | no binding | no binding | no binding | no binding | I065D08 (scFv) scFv: GVQLVQSGAEVKKPGASVKVSCKASGYTFTSYGISWVRQAPGQGLEWMGWISAYNGNTNYAQKLQGRVTMTTDTSTSTAYMELRSLRSDDTAVYYCARTPSSVYDLLTGYYHYFYSYMDVWGRGTMVTVSSGGGGSGGGGSGGGGSQSVLTQPASVSGSPGQSITISCTGTSSDVGGYNYVSWYQQHPGEAPKLMIYEGSKRPSGVSNRFSGSKSGNTASLTISGLQAEDEADYYCSSYTTRSTRVFGGGTKLTVLG
2 | binds | no binding | no binding | no binding | no binding | I026C04-R (scFv) scFv: QVQLVQSGAEVKKPGSSVKVSCRASGGSFNRHAISWVRQAPGRGLEWMGGILPMYGTANYAQKFQGRVTITADKLTNTVYMDLSRLRYEDTAVYYCARELGLSIVGATTGALDMWGKGTLVTVSSGGGGSGGGGSGGGGSAQSVLTQPPSVSAAPGQKVTISCSGSSSNIGNNYVSWYQQIPGTAPKLLIYENNKRPSGIPDRFSGSKSGASATLDITGLQTGDEADYYCGTWHSSQVVFGGGTKLTVLG
3 | binds | no binding | no binding | no binding | no binding | I064C04 (scFv) scFv: QVQLVQSGAEVKKPGASVKVSCEASGYTFTSYGISWVRQAPGQGLEWMGWISTYNGNTRYPQKLQGRVTMTTDTSTSTAYMDLRSLRSDDTAVYYCARDGRLSYDILTGYYARDYYGMDDWGRGTMVTVSSGGGGSGGGGSGGGGSQSVLTQPASVSGSPGQSITISCTGTSSDVGGYNYVSWYQQHPGKAPKLMIYEGSKRPSGVSNRFSGSKSGNTASLTISGLQAEDEADYYCSSYTTRSTRVFGGGTKLTVLG
4 | binds | no binding | no binding | no binding | no binding | I067B10 (scFv) scFv: QMQLVQSGAEVKKPGASVKVSCKASGYTFTSYYMHWVRQAPGQGLEWMGWINAGNSNTKYSQKFQGRVTITSDTSASTAYMELSGLRSEDTAVYYCARDRGAPNYDILTGYYAPAQGVAFDIWGKGTLATVSSGGGGSGGGGSGGGGSQSVLTQPPSVSAAPGQKVTISCSGSTSNIGNNYVSWYQQHPGKAPKLMIYDVSKRPSGVPDRFSGSKSGNSASLDISGLQSEDEADYYCAAWDDSLSEFLFGTGTKLTVLG
5 | binds | no binding | no binding | no binding | no binding | I073F04 (scFv) scFv: QVQLQQSGAEVKKPGSSVKVSCKASGGTFRSYAFSWVRQAPGQGLEWMGYIVPVFGTATYAQNFQGRVTITADELTTTAFMELSSLTSEDTAVYYCARSLATRPLGMDVWGRGTTVTVSSGGGGSGGGGSGGGGSQSVLTQPASVSGSPGQSITISCTGTSSDVGGYNYVSWYQQHPGKAPKLMIYEGSKRPSGVSNRFSGSKSGNTASLTISGLQAEDEADYYCSSYTTRSTRVFGGGTKLTVLG
6 | binds | no binding | no binding | no binding | no binding | I002A01-R (scFv) scFv: QVQLVQSGAEVKKPGSSVKVSCRASGGSFNRHAISWVRQAPGRGLEWMGGILPMYGTANYAQKFQGRVTITADKLTNTVYMDLSRLRYEDTAVYYCARELGLSIVGATTGALDMWGKGTLVTVSSGGGGSGGGGSGGGGSALPVLTQPPSVSVAPGQTATLTCGGTNFGRQSVHWYQQKPGQAPVLAIYHDDVRPSGIPERLSGSKSGNTATLTISRVEAGDEAAYYCQVWDSGSDVVVFGGGTKLTVLG
7 | binds | no binding | no binding | no binding | no binding | I002A01-K (scFv) scFv: QVQLVQSGAEVKKPGSSVKVSCRASGGSFNKHAISWVRQAPGRGLEWMGGILPMYGTANYAQKFQGRVTITADKLTNTVYMDLSRLRYEDTAVYYCARELGLSIVGATTGALDMWGKGTLVTVSSGGGGSGGGGSGGGGSALPVLTQPPSVSVAPGQTATLTCGGTNFGRQSVHWYQQKPGQAPVLAIYHDDVRPSGIPERLSGSKSGNTATLTISRVEAGDEAAYYCQVWDSGSDVVVFGGGTKLTVLG
8 | binds | no binding | no binding | no binding | no binding | I065F08 (scFv) scFv: QVQLQQSGAEVKKPGSSVKVSCKASGDTFSSFGISWVRQVPGQGLEWMGAIIPKFDIVTYAEEFKGRVTISADKLTNTAYMEVKSLRSEDTAVYYCTREKSAAGYFDYWGKGTLVTVSSGGGGSGGGGSGGGGSDIVMTQSPSTLSASVGDRVTITCRASQGISSWLAWYQQKPGRAPKVLIYKASTLESGVPSRFSGSGSGTDFTLTISSLQPEDFATYYCQQSYSTPWTFGQGTKLEIKR
9 | binds | no binding | no binding | no binding | no binding | I078D08 (scFv) scFv: QVNLRESGGGLVQPGGSLRLSCAASGFTFSSYWMSWVRQAPGKGLEWVANIKQDGSEKYYVDSVKGRFTISRDNSKNTLYLQMNSLRAEDTAVYYCARDAQSYYDILTGYQSYAFDIWGQGTTVTVSSGGGGSGGGGSGGGGSSELTQDPAVSVALGQTVRITCQGDSLRSYYTNWFQQKPGQAPLLVVYAKNKRPSGIPDRFSGSSSGNTASLTITGAQAEDEADYYCHSRDSSGNHVLFGGGTKLTVLG
10 | binds | no binding | no binding | no binding | no binding | I030A10 (scFv) scFv: QVQLVQSGAEVKKPGSSVKVSCRASGGSFNHAISWVRQAPGRGLEWMGGILPMYGTANYAQKFQGRVTITADKLTNTVYMDLSRLRYEDTAVYYCARELGLSIVGATTGALDMWGRGTLVTVSSGGGGSGGGGSGGGGSAQAVLTQPSSVSGAPGQRVIISCTGSSSNIGPDYDVHWYQQLPGTAPKLLIYGNNNRPSGVPDRFSGSKSGTSASLAITGLQAEDEAHYYCQSYGSSLSGVVFGGGTKVTVLG
11 | binds | no binding | no binding | no binding | no binding | I072B09 (scFv) scFv: QVQLQQSGAEVKKPGASVKVSCRASGYTFTKYTMHWVRQAPGQGPEWMGWINGGSGDTKYSRKFQGRVTITKDTSASAAYMELSSLGSEDTALYYCARATYDPLTGYSFDGFDIWGQGTLVTVSSGGGGSGGGGSGGGGSSELTQDPAVSVALGQTVRITCQGDSLRSYYTNWFQQKPGQAPLLVVYAKNKRPSGIPDRFSGSSSGNTASLTITGAQAEDEADYYCNSRDSSGNHVVFGGGTKLTVLD
12 | binds | no binding | no binding | no binding | no binding | I003C06 (scFv) scFv: QVQLVQSGAEVKKPGSSVKVSCRASGGSFNHAISWVRQAPGRGLEWMGGILPMYGTANYAQKFQGRVTITADKLTNTVYMDLSRLRYEDTAVYYCARELGLSIVGATTGALDMWGKGTLVTVSSGGGGSGGGGSGGGGSALPVLTQPPSVSVAPGQTATLTCGGTNFGRQSVHWYQQKPGQAPVLAIYHDDVRPSGIPERLSGSKSGNTATLTISRVEAGDEAAYYCQVWDSGSDVVVFGGGTKLTVLG
13 | binds | no binding | no binding | no binding | no binding | I068B04 (scFv) scFv: QVQLVQSGAEVKKPGSSVKVSCKASGGTVSSRTISWVRQAPGQGLEWMGGSLPPSGAPIYAQKFQGRVAITADALTNTAFMELRSLKSDDTAVYYCARDQGRYLDLWGRGTLVTVSSGGGGSGGGGSGGGGSALPVLTQPPSASATPGQRVTISCSGSSSNIGSNYVYWYQQLPGTAPKVLIYRNNQRPSGVPDRFSGSRSGTSASLAISGLRSEDEADYYCATWDDSLSGPVFGGGTKVTVLG
14 | binds | no binding | no binding | no binding | no binding | I075G01 (scFv) scFv: QVQLVQSGAEVKKPGASVKVSCKTSGYTFTGYNINWVRQAPGQGLEWMGWVSPSNGDTSYAQTFQGRVTMTRDTSISTAYMELSSLKSDDTAVYYCARDHFDTLTGYFRRLDSWGQGTLVTVSSGGGGSGGGGSGGGGSALSSELTQDPEVSVALGQTVTITCQGDSLITHYASWFQQKPGQAPLLVFYSKDKRPSGIPDRFSGSYSGNTASLTITGAQAEDEADYYCNSRDSRGKNHVAFGGGTKLTVLG
